In patent US8551742B2 (priority 2007, dated 2013):
Residue numbers refer to the chain shown, from its start.

What was measured:
O-succinylsulfhydrylase = target: T1, O-succinylsulfhydrylase (Pseudomonas aeruginosa, UniProt P55218); assay: In-vitro assays of O-succinylsulfhydrylase; assay type: biochemical
T1 sequence (P55218 whole entry, looked up): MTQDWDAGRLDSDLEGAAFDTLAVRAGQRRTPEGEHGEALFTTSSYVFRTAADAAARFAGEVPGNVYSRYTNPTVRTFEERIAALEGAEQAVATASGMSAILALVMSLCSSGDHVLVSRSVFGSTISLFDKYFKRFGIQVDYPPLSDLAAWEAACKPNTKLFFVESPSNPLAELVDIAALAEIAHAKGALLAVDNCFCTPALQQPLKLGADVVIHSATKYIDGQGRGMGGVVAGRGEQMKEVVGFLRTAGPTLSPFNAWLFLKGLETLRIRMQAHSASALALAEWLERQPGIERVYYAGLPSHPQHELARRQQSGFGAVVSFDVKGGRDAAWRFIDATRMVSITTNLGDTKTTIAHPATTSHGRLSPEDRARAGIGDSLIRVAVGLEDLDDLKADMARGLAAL
Experimental: Low methionine production of the deletion mutants transformed with metZ may be due to the limitation of sulfide in the intracellular fraction (methods of increasing sulfide concentration are provided below). This is supported by the finding that the growth of the metBC deletion strain transformed with metZ was enhanced in M9 media in the presence of 2 mM sodium sulfide. […] Through directed evolution, it is possible to develop improved O-succinylsulfhydrylases with higher sulfide affinity and also higher activity.

MetA = assay: In-vitro characterization of purified mutant and wild type MetA enzymes (assay of Lawrence, modified); assay type: biochemical, E. coli
Experimental: PCR was used to amplify and then clone the five metA mutant genes identified as pCL-A#10, pCL-A#11, pCL-A#32, pCL-A#37, and pCL-A#41, into the pET30a vector. All constructs were subjected to DNA sequence analysis to confirm the presence of mutations. The genes were cloned with a C-terminus His tag for enzyme purification. The enzymes were overexpressed, purified and the activity was measured in the presence of different levels of methionine and SAMe, as described by Lawrence, J. Bacteriol., 109:8-11, 1972. The only modifications to the assay were that multiple points were taken and that the reaction was quenched with guanidine.

MetK [1] = assay: MetK mutants radioactive assay in vitro ([methyl-14C]methionine to SAMe); assay type: biochemical, E. coli; conditions: 5 minute reaction time; C-terminal His tagged proteins unless untagged
Experimental: The metK gene from E. coli (Accession number AP—003499 or BAE77005) was cloned and overexpressed with either an N-terminal or a C-terminal His tag in pET28b vector. Site directed mutagenesis was performed using the C-terminal His tagged metK clone to generate the desired mutants. Expression of the mutant MetK proteins was confirmed.
The MetK mutants were purified (using the C-terminal His tag) and assayed in vitro. The wild type C-terminal His-tagged MetK protein was used as a control. The mutants were assayed using a radioactive assay. The assay conditions were as follows: • Assay Mix: • 1.0 mL 0.5 M HEPES/KOH, pH 8.0 • 0.5 mL 1.0 M KCl • 0.2 mL 1.0 M MgCl2 • 1.0 mL 100 mM ATP (disodium salt, pH 8.0 with KOH) • 0.1 mL 50 mM methionine • 0.1 mL NEN [methyl-^14C]methionine • 6.6 mL H2O • 25 mM EDTA pH 8.0 stop for assays.
45 μl of assay mix was added to an Eppendorf tube and 5 μL of enzyme (normalized data shown in Table 13. The reaction was incubated at room temperature (or 25° C.) for a desired period (1 to 10 minutes). The reaction was stopped with the addition of 150 μL of 25 mM EDTA. 100 μL of the reaction was spotted onto a 2.5 cm diameter Whatman P-81 phosphocellulose filter circle (labeled in pencil). The filters were washed with 3 L of distilled water, air-dried and placed in scintillation vials with aquasol. The emissions were counted using a window that extends from ^14C to about 0. Assay efficiency and quench levels were determined by adding a known amount of counts of pure ^14C-SAM and processing through the whole procedure. Backgrounds are typically<100 cpm (total counts ca. 10^5 cpm per reaction).

MetK [2] = conditions: literature reference; cited from earlier work
[3] = control (no Met or SAM), U = formation of 1 μmole of CoA per minute at room temperature

B1: O-succinylsulfhydrylase: O-succinylsulfhydrylase (EC 4.2.99.-) codified by metZ from Pseudomonas aeruginosa (protein, UniProt P55218 1-403, looked up)
O-succinylhomoserine …: T1 sequence (P55218 whole entry, looked up)
sulfide affinity (O-succinylsulfhydrylase): low sulfide affinity

B2: #11 (protein, listed as Escherichia coli)
chain: MPIRVPDELPAVNFLREENVFVMTTSRAPGQEIRPLKVLILNLMPKKIETENQFLRLLSNSPLQVDIQLLRIDSRESRNTPAEHLNNFYCNFEDIQDQNFDGLIVTGAPLGLVGFNDVAYWPQIKQVLEWSKDHVTSTLSVCWAVQAALNILYGIPKQTRTEKLSGVYEHHILHPHALLTRGFDDSFLAPHSRYADFPAALIRDYTDLEILAETEEGDAYLFASKDKRIAFVTGHPEYDAQTLAQEFFRDVEAGLDPDVPYNYFPHNDPQNTPRASWRSHGNLLFTNWLNYYVYQITPYDLRHMNPTLD
% of specific activity retention (MetA; control): 100% | Specific activity (U/mg) (MetA; [3]): 479 U/mg | feed-back inhibition resistance compared to the wild type enzyme (MetA; methionine and SAM inhibition): most resistant | % of specific activity retention (MetA; w/10 mM SAM): 82% | Specific activity (U/mg) (MetA; w/10 mM SAM): 395 U/mg | % of specific activity retention (MetA; w/ 100 mM Met): 94% | Specific activity (U/mg) (MetA; w/ 100 mM Met): 451 U/mg | % of specific activity retention (MetA; w/ 300 mM Met): 56% | Specific activity (U/mg) (MetA; w/ 300 mM Met): 282 U/mg | % of specific activity retention (MetA; w/ 300 mM Met, listed as metA #11): 55%

B3: w.t.: wild type E. coli MetA enzyme (homoserine succinyltransferase), C-terminus His tag, purified (protein, UniProt P07623 2-309, looked up)
Homoserine …: PIRVPDELPAVNFLREENVFVMTTSRASGQEIRPLKVLILNLMPKKIETENQFLRLLSNSPLQVDIQLLRIDSRESRNTPAEHLNNFYCNFEDIQDQNFDGLIVTGAPLGLVEFNDVAYWPQIKQVLEWSKDHVTSTLFVCWAVQAALNILYGIPKQTRTEKLSGVYEHHILHPHALLTRGFDDSFLAPHSRYADFPAALIRDYTDLEILAETEEGDAYLFASKDKRIAFVTGHPEYDAQTLAQEFFRDVEAGLDPDVPYNYFPHNDPQNTPRASWRSHGNLLFTNWLNYYVYQITPYDLRHMNPTLD
modifications: C-terminal His tag
notes: wild type E. coli MetA enzyme (homoserine succinyltransferase), C-terminus His tag, purified
% of specific activity retention (MetA; control): 100% | Specific activity (U/mg) (MetA; [3]): 386 U/mg | % of specific activity retention (MetA; w/10 mM SAM): 2.9% | Specific activity (U/mg) (MetA; w/10 mM SAM): 11 U/mg | % of specific activity retention (MetA; w/ 100 mM Met): 7.6% | Specific activity (U/mg) (MetA; w/ 100 mM Met): 29 U/mg

B4: Gly 77 Val (protein, UniProt P0A817 2-384, looked up, variant G77V)
S-adenosylmethionine synthase: AKHLFTSESVSEGHPDKIADQISDAVLDAILEQDPKARVACETYVKTGMVLVGGEITTSAWVDIEEITRNTVREIVYVHSDMGFDANSCAVLSAIGKQSPDINQGVDRADPLEQGAGDQGLMFGYATNETDVLMPAPITYAHRLVQRQAEVRKNGTLPWLRPDAKSQVTFQYDDGKIVGIDAVVLSTQHSEEIDQKSLQEAVMEEIIKPILPAEWLTSATKFFINPTGRFVIGGPMGDCGLTGRKIIVDTYGGMARHGGGAFSGKDPSKVDRSAAYAARYVAKNIVAAGLADRCEIQVSYAIGVAEPTSIMVETFGTEKVPSEQLTLLVREFFDLRPYGLIQMLDLLHPIYKETAAYGHFGREHFPWEKTDKAQLLRDAAGLK
Activity (CPM SAMe/ μg purified protein/min) (MetK [1]): 6.9 CPM SAMe/ μg purified protein/min

B5: Cys 90 Ala (protein, UniProt P0A817 2-384, looked up, variant C90A)
S-adenosylmethionine synthase: B4 S-adenosylmethionine synthase with V76G, C89A
Expected Effect on SAMe synth: % of WT activity (MetK [2]): Only 10% of WT | Activity (CPM SAMe/ μg purified protein/min) (MetK [1]): Same as WT

B6: Cys 90 Ser (protein, UniProt P0A817 2-384, looked up, variant C90S)
S-adenosylmethionine synthase: B4 S-adenosylmethionine synthase with V76G, C89S
Expected Effect on SAMe synth: % of WT activity (MetK [2]): Only 10% of WT | Activity (CPM SAMe/ μg purified protein/min) (MetK [1]): 23.2 CPM SAMe/ μg purified protein/min

B7: Asp 118 Asn (protein, UniProt P0A817 2-384, looked up, variant D118N)
S-adenosylmethionine synthase: B4 S-adenosylmethionine synthase with V76G, D118N
Expected Effect on SAMe synth: kcat reduction (MetK [2]): kcat reduction of ~ 103 fold | Activity (CPM SAMe/ μg purified protein/min) (MetK [1]): 1.3 CPM SAMe/ μg purified protein/min

B8: Asp 238 Asn (protein, UniProt P0A817 2-384, looked up, variant D238N)
S-adenosylmethionine synthase: B4 S-adenosylmethionine synthase with V76G, D238N
Expected Effect on SAMe synth: kcat reduction (MetK [2]): kcat reduction of ~ 103 fold | Activity (CPM SAMe/ μg purified protein/min) (MetK [1]): 1.9 CPM SAMe/ μg purified protein/min

B9: Lys 245 Met (protein, UniProt P0A817 2-384, looked up, variant K245M)
S-adenosylmethionine synthase: B4 S-adenosylmethionine synthase with V76G, K245M
Expected Effect on SAMe synth: activity reduced / lower activity than WT (MetK [2]): 42,000 fold | Activity (CPM SAMe/ μg purified protein/min) (MetK [1]): 2.5 CPM SAMe/ μg purified protein/min

B10: Asp 271 Ala (protein, UniProt P0A817 2-384, looked up, variant D271A)
S-adenosylmethionine synthase: B4 S-adenosylmethionine synthase with V76G, D271A
Expected Effect on SAMe synth: kcat reduction (MetK [2]): kcat reduction of ~ 103 fold | Activity (CPM SAMe/ μg purified protein/min) (MetK [1]): 0.4 (not duplicated) CPM SAMe/ μg purified protein/min

B11: WT control: wild type C-terminal His-tagged MetK protein used as a control (protein, UniProt P0A817 2-384, looked up)
S-adenosylmethionine synthase: B4 S-adenosylmethionine synthase with V76G
modifications: C-terminal His tag
Activity (CPM SAMe/ μg purified protein/min) (MetK [1]): 995.4 CPM SAMe/ μg purified protein/min

B12: WT Untagged: untagged wild type MetK protein, Markham lab (protein, UniProt P0A817 2-384, looked up)
S-adenosylmethionine synthase: B4 S-adenosylmethionine synthase with V76G
Activity (CPM SAMe/ μg purified protein/min) (MetK [1]): 5600 CPM SAMe/ μg purified protein/min

B13: His 14 Asn (protein, UniProt P0A817 2-384, looked up, variant H14N)
S-adenosylmethionine synthase: B4 S-adenosylmethionine synthase with H14N, V76G
Expected Effect on SAMe synth: activity reduced / lower activity than WT (MetK [2]): Activity reduced ~ 104 fold | Activity (CPM SAMe/ μg purified protein/min) (MetK [1]): 7.7 CPM SAMe/ μg purified protein/min

B14: Asp 16 Asn (protein, UniProt P0A817 2-384, looked up, variant D16N)
S-adenosylmethionine synthase: B4 S-adenosylmethionine synthase with D16N, V76G
Expected Effect on SAMe synth: kcat reduction (MetK [2]): kcat reduction of ~ 103 fold | Activity (CPM SAMe/ μg purified protein/min) (MetK [1]): 2.5 CPM SAMe/ μg purified protein/min
